Experimental data reported in PMC8752127 (Structure(London, England:1993), 2022).

Target: CEP164^1−109 (N-terminal domain of human CEP164), untagged (human, UniProt Q9UPV0)
Assay: crystal structure; nanobody and CEP164 1-109 (or the TTBK2 1074-1087-CEP164 1-109 fusion protein) mixed equimolar; vapour diffusion at 19°C
Conditions: both partners purified

B1: camelid nanobody 36Z (VHH)
VHH: QVQLQESGGGLVQAGGSLNLSCVASGSSHFNSMGWYRQAPGKQRDLVADISNDGVTNYADSVKDRFTISTNNAKNAVYLQMNNLKPEDTAVYYCNAVAVAGRAFSYWGQGTQVTVSS
- binding result: binds
